Molecular target: deglycosylated rituximab (Fucα1,6GlcNAc-rituximab)
Assay: cell-based or functional assay

| Substance | KM (µM), transglycosylation kinetics for the deglycosylated rituximab [µM] | KM relative to Endo-S2 D184M [fold] |
| --- | --- | --- |
| Endo-S2 D184A mutant (D184A mutant of wild type Endo-S2) (from UniProt T1WGN1 37-843) (enzyme) | > 680 | > 20 |
| Endo-S2 D184M mutant (D184M mutant of wild type Endo-S2) (from UniProt T1WGN1 37-843) (enzyme) | 32.6 | – |
| Endo-S D233A mutant (Streptococcus pyogenes Endoglycosidase-S Asp-233-Ala) (from UniProt Q99Y92 37-995) (enzyme) | > 200 | – |
| Endo-S D233M mutant (Streptococcus pyogenes Endoglycosidase-S Asp-233-Met) (from UniProt Q99Y92 37-995) (enzyme) | 30.2 | – |

Reference: patent US20190002945A1
